According to patent publication EP4786493A1 (Nanjing Probio Biotech Co., Ltd., dated 2026):

How the values were obtained:
[1] = target: T1, recombinant human Claudin 18.2 protein (GenScript, Z03504) (human, UniProt P56856-2 1-261, limits assumed); assay: SPR Biacore 8K, antibody captured via Fc, human Claudin 18.2 protein as analyte
T1 construct: Bought recombinant protein

[2] = target: T2, human Claudin 18.2 expressed on cells (HEK293/human Claudin 18.2; CHO-K1/human Claudin 18.2) (human, UniProt P56856-2 1-261); assay: cell-based or functional assay
[3] = target: T2, human Claudin 18.2 expressed on cells …; assay: flow cytometry on HEK293 cells expressing human Claudin 18.2
[4] = target: T2, human Claudin 18.2 expressed on cells …; assay: cell-based or functional assay; remark: listed apart in the source
[5] = target: T1, recombinant human Claudin 18.2 protein …; assay: competition ELISA on coated recombinant human Claudin 18.2; competitor biotinylated IMAB362 (0.72 µg/ml)
[6] = target: T1, recombinant human Claudin 18.2 protein …; assay: indirect ELISA, plate coated with recombinant human Claudin 18.2, anti-human IgG Fc-HRP detection

Binder | Kd [1] | CDC on CHO-K1/human Claudin 18.2 cells: Top [2] | EC50 [3] | ADCC reporter gene assay (CHO-K1/Claudin 18.2 target cells, GS-J2C/CD16A 158V effector cells): EC50 [4] | ADCC reporter gene assay (CHO-K1/Claudin 18.2 target cells, GS-J2C/CD16A 158V effector cells): Top [4] | IC50 [5] | EC50 [6]
AHP29153 (antibody, V domains shown) VH: QLQQVESGGGLVQPGGSLRLSCAASRNIGILSTMGWYRQAPGKQRELVATITRGGSTNYGEFVKGRFTISRDNAKNTVYLQMNSLKPEDTAVYYCNVDESWLGTQSYWGRGTTVTVSS VL: QSVLTQPASVSGSPGQSITISCTGTSSDVGGYKYVSWYQQPPGKAPKLIIYEVTKRPSGVPDRFSGSKSGNTASLTVSGLQAEDEADYYCLSYAGSNNVFGTGTKLTVL | 9.96 nM | 96.3% | 8.15 nM | 0.805 nM | 283000 | 0.323 nM | 0.125 nM
AHP33007 (antibody, V domains shown) VH: QVQLVQSGGGLVQPGGSLRLSCAASRNIGILSTMGWYRQAPGKQRELVATITRGGSTNYGEFVKGRFTISRDNAKNTVYLQMNSLKPEDTAVYYCNVDESWLGTQSYWGRGPLVTVSS VL: not shown | 2.7 nM | 92.7% | 12.4 nM | 1.84 nM | 295000 | 0.805 nM | 0.139 nM
AHP32913 (antibody, V domains shown) VH: QVQLMQSGGGLVQPGGSLRLSCAASRNIGILSTMGWYRQAPGKQRELVATITRGGSTNYGEFVKGRFTISRDNAKNTVYLQMNSLKPEDTAVYYCNVDESWLGTQSYWGRGTQVTVSS VL: QAVVTQEPSLTVSPGGTVTLTCGSSTGPVTSGHYPHWYQQKPGQAPKTLIFDTSHKHPWTPAQFSGSLLGGKAALTLSGAHPEDEAEYYCLLSYSGVRVFGGGTQLIIL | 9.44 nM | 93% | 4.16 nM | 8.12 nM | 486000 | 0.337 nM | 0.111 nM
AHP32982 (antibody, V domains shown) VH: QVQLVQSGGGLVQPGGSLRLSCAASRNIGILSTMGWYRQAPGKQRELVATITRGGSTNYGEFVKGRFTISRDNAKNTVYLQMNSLKPEDTAVYYCNVDESWLGTQSYWGRGPLVTVSS VL: DIVMTQSPSSVSASVGDRVTITCRASQGISSWLAWYQQKPGKAPKLLIYAASSLQSGVPSRFSGSGSGTDFTLTISSLQPEDFATYYCQQANSFPLTFGGGTKVEIK | 13.3 nM | 95.5% | 5.91 nM | 0.379 nM | 216000 | 0.491 nM | 0.119 nM
AHP31548 (antibody, V domains shown) VH: QVQLMQSGGGLVQPGGSLRLSCAASRNIGILSTMGWYRQAPGKQRELVATITRGGSTNYGEFVKGRFTISRDNAKNTVYLQMNSLKPEDTAVYYCNVDESWLGTQSYWGRGTTVTVSS VL: QSALTQPPSASGSPGQSVTISCTGTSSDIGTYNFVSWYQQHPGKAPKLIIYEVSKRPSGVPDRFSGSKSGNTASLTVSGLQAEDEADYYCKSYPRVFGTGTKLTAL | 7.31 nM | 94% | 3.08 nM | 2.15 nM | 463000 | 0.265 nM | 0.074 nM
AHP30826 (antibody, V domains shown) VH: QVQLQQSGGGSVQAGGSLRLSCAASGTILSINAMGWYRQAPGKQRELVATITTGGNANYAHSVKGRFTISRDNAKNTVYLQMNNLKPEDTAVYYCNAEQVVVGFLQAYDVWGQGTTVTVSS VL: DVVMTQSPLSLPVTLGQAASISCRSSQSLVHGDGNTYLNWIQQRPGQSPRRLIYKVSNRDSGVPDRFSGSGSGTDFTLKISRVEAEDVGVYYCMQGTHWPSTFGPGTKVDIK | 7.82 nM | 96% | 3.54 nM | 0.684 nM | 222000 | 0.276 nM | 0.0914 nM
AHP32919 (antibody, V domains shown) VH: QVQLQESGGGVVQPGGSLRLSCAASQSIGLLSTMGWYRQAAGKQRELVATITRGGSTNYGEFVKGRFTISRDNAKNTVYLQMNSLKPEDTAVYYCTADESWLGTQSYWGRGTRVTVSS VL: QAGLTQPPSASGTPGQGVTISCSGSSSNIGSNSVNWYQQLPGTAPKLLMHSNNERSSGVPDRFSGSKSGSSASLAISGLQSEDAADYFCGAWDDSLNGYVFGTGTKLTVL | 7.91 nM | 96.3% | 6.04 nM | ~0.439 nM | 199000 | 0.271 nM | 0.0788 nM
AHP33029 (antibody, V domains shown) VH: QVQLVDSGGGLVQSGGSLRLTCAASQSIGLLSTMGWYRQAAGKQRELVATITRGGSTNYGEFVKGRFTISRDNAKNTVYLQMNSLKPEDTAVYYCTADESWLGTQSYWGRGTLVTVSS VL: not shown | 10.2 nM | 96.9% | 4.24 nM | 3.73 nM | 358000 | 0.319 nM | 0.0746 nM
